Earlier results, collected in publication PMC6258485.

Biological target: CD55 (Homo sapiens) (UniProt P08174)
UniProt P08174, sequence (P08174 35-353): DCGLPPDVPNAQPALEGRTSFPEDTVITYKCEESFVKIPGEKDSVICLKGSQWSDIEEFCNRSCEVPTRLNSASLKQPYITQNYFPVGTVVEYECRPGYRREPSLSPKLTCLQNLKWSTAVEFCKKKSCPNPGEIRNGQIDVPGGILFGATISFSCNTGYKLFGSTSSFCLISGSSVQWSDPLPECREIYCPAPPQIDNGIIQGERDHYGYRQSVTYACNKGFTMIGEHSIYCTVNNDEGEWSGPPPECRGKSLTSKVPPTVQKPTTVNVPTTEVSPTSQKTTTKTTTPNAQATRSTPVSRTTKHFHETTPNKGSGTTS

Kd: 86 µM
Substance: CD97 (from UniProt P48960)
